Laboratory results as given in paper PMC4822050, “Hemi-methylated DNA opens a closed conformation of UHRF1 to facilitate its histone recognition” (Nature Communications, 2016).
Substitutions are numbered along the chain they refer to. In names and notes the source's numbering stands. Several values for one entry are separate records, joined by “and”; a condition that tells them apart may be missing. Identical values can stand only once. Blank lines part the entries; values can stand above or below the binder they belong to.

T1: SRA of UHRF1 (residues 414–617) (human, UniProt Q96T88 414-617)
T1 construct: human UHRF1, SRA domain, residues 414–617; also called SET-and-RING-associated domain
T1 sequence (looked up): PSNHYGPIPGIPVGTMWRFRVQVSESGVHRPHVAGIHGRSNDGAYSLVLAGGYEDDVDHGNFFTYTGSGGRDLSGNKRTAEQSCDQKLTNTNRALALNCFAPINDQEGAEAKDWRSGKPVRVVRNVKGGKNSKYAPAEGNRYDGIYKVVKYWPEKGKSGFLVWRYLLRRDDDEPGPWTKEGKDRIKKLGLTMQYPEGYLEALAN

T2: SRA–Spacer of UHRF1 (residues 414–674) (human, UniProt Q96T88 414-674)
T2 sequence (looked up): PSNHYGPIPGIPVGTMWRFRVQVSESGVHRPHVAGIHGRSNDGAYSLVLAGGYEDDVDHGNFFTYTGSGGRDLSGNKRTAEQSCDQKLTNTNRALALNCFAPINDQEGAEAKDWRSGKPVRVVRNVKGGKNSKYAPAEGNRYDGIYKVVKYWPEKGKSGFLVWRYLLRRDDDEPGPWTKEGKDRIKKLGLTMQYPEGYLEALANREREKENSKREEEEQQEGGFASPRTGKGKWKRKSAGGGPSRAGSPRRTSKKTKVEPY

T3: TTD–PHD of UHRF1 (residues 134–366) (human, UniProt Q96T88 134-366)
T3 sequence (looked up): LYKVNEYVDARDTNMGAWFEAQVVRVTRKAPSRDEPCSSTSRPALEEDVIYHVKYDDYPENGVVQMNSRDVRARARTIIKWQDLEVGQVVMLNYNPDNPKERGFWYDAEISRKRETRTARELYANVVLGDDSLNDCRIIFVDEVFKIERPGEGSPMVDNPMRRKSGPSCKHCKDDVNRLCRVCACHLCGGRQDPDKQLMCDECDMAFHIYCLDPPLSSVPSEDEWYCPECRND

T4: TTD–PHD R295D/R296D (human, UniProt Q96T88 134-366, R295D | R296D)
T4 sequence (looked up): T3 sequence (looked up) with R162D, R163D

T5: UHRF1^Δ627–674 (human, UniProt Q96T88 1-793, Δ627–674)
T5 construct: also called spacer deletion mutant
T5 sequence (looked up): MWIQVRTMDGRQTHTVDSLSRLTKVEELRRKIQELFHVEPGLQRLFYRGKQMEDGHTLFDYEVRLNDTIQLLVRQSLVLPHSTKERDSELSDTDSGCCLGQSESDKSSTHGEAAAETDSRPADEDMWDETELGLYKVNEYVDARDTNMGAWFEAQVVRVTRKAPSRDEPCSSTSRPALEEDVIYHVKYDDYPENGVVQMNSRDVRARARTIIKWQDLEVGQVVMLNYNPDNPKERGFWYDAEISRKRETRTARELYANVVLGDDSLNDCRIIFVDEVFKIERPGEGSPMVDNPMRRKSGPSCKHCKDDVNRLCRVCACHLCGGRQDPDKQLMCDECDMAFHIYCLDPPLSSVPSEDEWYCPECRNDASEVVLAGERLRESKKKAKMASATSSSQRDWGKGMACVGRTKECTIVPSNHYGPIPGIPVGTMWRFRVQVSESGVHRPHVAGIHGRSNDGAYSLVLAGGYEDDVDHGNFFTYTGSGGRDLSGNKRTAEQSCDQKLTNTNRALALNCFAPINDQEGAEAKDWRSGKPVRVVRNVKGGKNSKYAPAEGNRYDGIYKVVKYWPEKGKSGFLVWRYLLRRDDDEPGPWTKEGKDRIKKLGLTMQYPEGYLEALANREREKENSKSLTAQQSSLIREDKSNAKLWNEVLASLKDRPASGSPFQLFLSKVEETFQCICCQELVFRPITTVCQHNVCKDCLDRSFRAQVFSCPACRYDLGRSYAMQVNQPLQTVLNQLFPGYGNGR

B1: PHD of UHRF1 (residues 307–366) (domain or fragment, human, UniProt Q96T88 307-366, looked up)
chain: DDVNRLCRVCACHLCGGRQDPDKQLMCDECDMAFHIYCLDPPLSSVPSEDEWYCPECRND
notes: human UHRF1, PHD, residues 307–366; also called plant homeodomain; the isolated PHD
B2: GST-tagged TTD–PHD of UHRF1 (domain or fragment, human, UniProt Q96T88 134-366, looked up)
chain: T3 sequence (looked up)
notes: also called GST-TTD–PHD
B3: TTD of UHRF1 (residues 134–285) (domain or fragment, human, UniProt Q96T88 134-285, looked up)
chain: LYKVNEYVDARDTNMGAWFEAQVVRVTRKAPSRDEPCSSTSRPALEEDVIYHVKYDDYPENGVVQMNSRDVRARARTIIKWQDLEVGQVVMLNYNPDNPKERGFWYDAEISRKRETRTARELYANVVLGDDSLNDCRIIFVDEVFKIERPGE
notes: 15N- or 13C/15N-labelled for the NMR work; also called tandem Tudor domain; the isolated TTD
B4: GST-tagged TTD of UHRF1 (domain or fragment, human, UniProt Q96T88 134-285, looked up)
chain: B3 chain
notes: pGEX-6p-1 derivative vector; also called GST-TTD
B5: Spacer^Δ660–664 (domain or fragment, human, UniProt Q96T88 587-674, looked up)
chain: PGPWTKEGKDRIKKLGLTMQYPEGYLEALANREREKENSKREEEEQQEGGFASPRTGKGKWKRKSAGGGPSRATSKKTKVEPY
B6: Spacer^Δ665–669 (domain or fragment, human, UniProt Q96T88 587-674, looked up)
chain: B5 chain with T74G, K76P, K77R, T78R
B7: Spacer^Δ650–654 (domain or fragment, human, UniProt Q96T88 587-674, looked up)
chain: B5 chain with K64G, S65P, A66S, G67R, G68A, P70S, S71P, A73R
B8: Spacer^Δ655–659 (domain or fragment, human, UniProt Q96T88 587-674, looked up)
chain: B5 chain with P70S, S71P, A73R
B9: Spacer^Δ670–674 (domain or fragment, human, UniProt Q96T88 587-674, looked up)
chain: B5 chain with T74G, K76P, K77R, T78R, K79T, V80S, E81K, P82K, Y83T
B10: Spacer^Δ642–651 (domain or fragment, human, UniProt Q96T88 587-674, looked up)
chain: PGPWTKEGKDRIKKLGLTMQYPEGYLEALANREREKENSKREEEEQQEGGFASPRAGGGPSRAGSPRRTSKKTKVEPY
B11: replication focus targeting sequence (RFTS) of DNMT1 (domain or fragment, UniProt P26358 400-533, looked up)
chain: EALPQHKLTCFSVYCKHGHLCPIDTGLIEKNIELFFSGSAKPIYDDDPSLEGGVNGKNLGPINEWWITGFDGGEKALIGFSTSFAEYILMDPSPEYAPIFGLMQEKIYISKIVVEFLQSNSDSTYEDLINKIET
notes: DNMT1, RFTS domain; also called RFTS^DNMT1
B12: Spacer of UHRF1 (residues 587–674) (domain or fragment, human, UniProt Q96T88 587-674, looked up)
chain: PGPWTKEGKDRIKKLGLTMQYPEGYLEALANREREKENSKREEEEQQEGGFASPRTGKGKWKRKSAGGGPSRAGSPRRTSKKTKVEPY
notes: also called the Spacer; Spacer peptide
B13: GST-tagged Spacer of UHRF1 (domain or fragment, human, UniProt Q96T88 587-674, looked up)
chain: B12 chain
notes: also called GST-Spacer
B14: Spacer S666D (domain or fragment, human, UniProt Q96T88 587-674, looked up)
chain: B12 chain with S80D
B15: Spacer R649A (domain or fragment, human, UniProt Q96T88 587-674, looked up)
chain: B12 chain with R63A
B16: Spacer K648D (domain or fragment, human, UniProt Q96T88 587-674, looked up)
chain: B12 chain with K62D
B17: Spacer S651D (domain or fragment, human, UniProt Q96T88 587-674, looked up)
chain: B12 chain with S65D
B18: Spacer S639D (domain or fragment, human, UniProt Q96T88 587-674, looked up)
chain: B12 chain with S53D
B19: truncated Spacer (residues 627–674) (domain or fragment, human, UniProt Q96T88 627-674, looked up)
chain: REEEEQQEGGFASPRTGKGKWKRKSAGGGPSRAGSPRRTSKKTKVEPY
notes: modified pRSF-Duet-1 vector; unlabelled or 15N-labelled in the NMR samples; residues 643–655 were built in the model

What was measured:
Settings in all cases: both partners purified
[1] = biological target: T1, SRA of UHRF1 (residues 414–617); assay: ITC; 0.05 mM protein in the cell, 0.5 mM protein or peptide in the syringe, iTC200, 18 °C, 10 mM HEPES pH 8.0, 100 mM NaCl
[2] = biological target: T2, SRA–Spacer of UHRF1 (residues 414–674); assay: pull-down; GST pull-down: 15 μg GST-tagged protein with 40 μg recombinant protein in 500 μl 20 mM HEPES-NaOH pH 8.0, 100 mM NaCl, 5% glycerol, 0.1% Triton X-100, 4 °C, glutathione resin, Coomassie staining; some panels with increasing hm-DNA
[3] = biological target: B3; assay: ITC; 0.05 mM protein in the cell, 0.5 mM protein or peptide in the syringe, iTC200, 18 °C, 10 mM HEPES pH 8.0, 100 mM NaCl
[4] = biological target: T2, SRA–Spacer of UHRF1 (residues 414–674); assay: as above
[5] = biological target: B3; assay: ITC; competition ITC: protein pre-incubated with the competing peptide or protein (1:2 molar ratio if not specified) for 10 min, then as a3
[6] = biological target: T3, TTD–PHD of UHRF1 (residues 134–366); assay: ITC; 0.05 mM protein in the cell, 0.5 mM protein or peptide in the syringe, iTC200, 18 °C, 10 mM HEPES pH 8.0, 100 mM NaCl
TTD–PHD R295D/R296D = biological target: T4, TTD–PHD R295D/R296D; assay: as above
UHRF1^Δ627–674 = biological target: T5, UHRF1^Δ627–674; assay: pull-down; GST pull-down: 15 μg GST-tagged protein with 40 μg recombinant protein in 500 μl 20 mM HEPES-NaOH pH 8.0, 100 mM NaCl, 5% glycerol, 0.1% Triton X-100, 4 °C, glutathione resin, Coomassie staining; some panels with increasing hm-DNA
[7] = biological target: B3; assay: NMR solution structure; TTD/Spacer (627–674) 1:1.2, PBS, 0.01% NaN3, pH 7.4, 10% D2O, 20 °C

Binder: B1
Kd [1]: 26.7 µM

Binder: B2
binding result [2]: binds

binding result [3]: binds
Binder: TGKGKWKRKSAGGGPSRAGSPRR (peptide, UniProt Q96T88 642-664, looked up) [unmodified peptide of Spacer^642–664]

Kd [3]: 24000 nM
Binder: MVDNPMRRKSGPSCKHCK (peptide, UniProt Q96T88 289-306, looked up, also called the Linker) [Linker peptide (289–306)]

Binder: B3
binding result [4]: binds

Binder: B4
binding result [2]: binds

Binder: B5
binding result [3]: binds

Binder: B6
binding result [3]: binds

Binder: B7
binding result [3]: binds

Binder: B8
binding result [3]: binds

Binder: B9
binding result [3]: binds

binding result [3]: binds
Binder: TGKGKWKRKSAGGGPSRAGSPRRTSKKTKVEPY (domain or fragment, human, UniProt Q96T88 642-674, looked up) [Spacer^642–674]

Binder: B10
binding result [3]: binds

Binder: B11
Kd [4]: 7.09 µM

Binder: B12
fold decrease in binding affinity in the presence of the Linker [5]: 2 fold | Kd [6]: 10.7 µM | Kd (TTD–PHD R295D/R296D): 2690 nM | Kd [3]: 1480 nM and 1590 nM | stoichiometry N [3]: 1

Binder: B13
binding result (UHRF1^Δ627–674): binds

Binder: B14
binding result [3]: binds

Binder: B15
fold decrease in binding affinity against the wild-type Spacer [3]: ~13 fold

Binder: B16
binding result [3]: binds

Binder: B17
binding result [3]: binds

Binder: B18
binding result [3]: binds

Binder: B19
binding result [7]: binds
